From the supplement of paper PMC10567573

B1: VTI1B (parent)
chain: ANETLAEMEEELRYAPLSFRNPMM

Variants of: B1
Experiment: protein stability index of a GFP-peptide fusion (GPS, HEK-293T) (PSI 1-6); higher = more stable
Details: c terminus: a fixed tail appended
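Note: lentivirally expressed fusions sorted by FACS into six bins by GFP to DsRed ratio, PSI derived from sequencing read proportions per bin multiplied by bin number.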

Compared with ANETLAGMEEELRYAPLSFRNPMM [E7G], ANETLAHMEEELRYAPLSFRNPMM [E7H] is higher in protein stability index: 1.9 for the first, 2.2 for the second.

Going from ANETLASMEEELRYAPLSFRNPMM [E7S] to ANETLAQMEEELRYAPLSFRNPMM [E7Q], the protein stability index falls from 2.84 to 2.31.

First: ANETLAWMEEELRYAPLSFRNPMM [E7W]
Second: ANETLALMEEELRYAPLSFRNPMM [E7L]
The protein stability index of the first is lower: 1.57 for the first, 2.5 for the second.

Compared with ANETLACMEEELRYAPLSFRNPMM [E7C], ANETLARMEEELRYAPLSFRNPMM [E7R] is lower in protein stability index: 2.01 for the first, 1.17 for the second.

First: ANETLATMEEELRYAPLSFRNPMM [E7T]
Second: YNETLAEMEEELRYAPLSFRNPMM [A1Y]
The protein stability index of the first is lower: 2.53 for the first, 2.54 for the second.

Going from VNETLAEMEEELRYAPLSFRNPMM [A1V] to TNETLAEMEEELRYAPLSFRNPMM [A1T], the protein stability index rises from 1.34 to 2.36.

Compared with WNETLAEMEEELRYAPLSFRNPMM [A1W], ANETLWEMEEELRYAPLSFRNPMM [A6W] is lower in protein stability index: 2.82 for the first, 2.05 for the second.

Compared with ANETLGEMEEELRYAPLSFRNPMM [A6G], ANETLDEMEEELRYAPLSFRNPMM [A6D] is higher in protein stability index: 2.17 for the first, 3.76 for the second.

Going from ANETLSEMEEELRYAPLSFRNPMM [A6S] to ANETLEEMEEELRYAPLSFRNPMM [A6E], the protein stability index rises from 2.73 to 2.77.

Going from ANETLREMEEELRYAPLSFRNPMM [A6R] to ANETLHEMEEELRYAPLSFRNPMM [A6H], the protein stability index falls from 2.67 to 2.4.

Going from ANETLVEMEEELRYAPLSFRNPMM [A6V] to ANETLTEMEEELRYAPLSFRNPMM [A6T], the protein stability index falls from 2.16 to 1.79.

First: ANETLLEMEEELRYAPLSFRNPMM [A6L]
Second: ANETLKEMEEELRYAPLSFRNPMM [A6K]
The protein stability index of the first is lower: 1.88 for the first, 2.78 for the second.

First: ANETLPEMEEELRYAPLSFRNPMM [A6P]
Second: ANETLIEMEEELRYAPLSFRNPMM [A6I]
The protein stability index of the first is higher: 2.51 for the first, 1.85 for the second.

Compared with ANETLNEMEEELRYAPLSFRNPMM [A6N], ANETLCEMEEELRYAPLSFRNPMM [A6C] is lower in protein stability index: 2.75 for the first, 2.12 for the second.

First: ANETLFEMEEELRYAPLSFRNPMM [A6F]
Second: ANETLMEMEEELRYAPLSFRNPMM [A6M]
The protein stability index of the first is higher: 3.33 for the first, 2.86 for the second.

First: ANETLQEMEEELRYAPLSFRNPMM [A6Q]
Second: ANETLYEMEEELRYAPLSFRNPMM [A6Y]
The protein stability index of the first is higher: 2.79 for the first, 2.18 for the second.

First: ANENLAEMEEELRYAPLSFRNPMM [T4N]
Second: ANEMLAEMEEELRYAPLSFRNPMM [T4M]
The protein stability index of the first is higher: 2.79 for the first, 2.07 for the second.

First: ANEILAEMEEELRYAPLSFRNPMM [T4I]
Second: ANEALAEMEEELRYAPLSFRNPMM [T4A]
The protein stability index of the first is higher: 2.4 for the first, 2.15 for the second.

Compared with ANERLAEMEEELRYAPLSFRNPMM [T4R], ANEVLAEMEEELRYAPLSFRNPMM [T4V] is lower in protein stability index: 1.99 for the first, 1.9 for the second.

Going from ANELLAEMEEELRYAPLSFRNPMM [T4L] to ANEQLAEMEEELRYAPLSFRNPMM [T4Q], the protein stability index rises from 2.47 to 2.54.

Going from ANEYLAEMEEELRYAPLSFRNPMM [T4Y] to ANEDLAEMEEELRYAPLSFRNPMM [T4D], the protein stability index rises from 1.23 to 2.33.

Compared with ANEKLAEMEEELRYAPLSFRNPMM [T4K], ANEPLAEMEEELRYAPLSFRNPMM [T4P] is lower in protein stability index: 2.72 for the first, 2.41 for the second.

Going from ANEGLAEMEEELRYAPLSFRNPMM [T4G] to ANEWLAEMEEELRYAPLSFRNPMM [T4W], the protein stability index falls from 2.39 to 1.99.

Compared with ANEELAEMEEELRYAPLSFRNPMM [T4E], ANESLAEMEEELRYAPLSFRNPMM [T4S] is lower in protein stability index: 3.26 for the first, 2.58 for the second.

Compared with ANECLAEMEEELRYAPLSFRNPMM [T4C], ANEFLAEMEEELRYAPLSFRNPMM [T4F] is higher in protein stability index: 1.69 for the first, 2.12 for the second.

First: ANEHLAEMEEELRYAPLSFRNPMM [T4H]
Second: ANETPAEMEEELRYAPLSFRNPMM [L5P]
The protein stability index of the first is lower: 1.83 for the first, 2.73 for the second.

Going from ANETRAEMEEELRYAPLSFRNPMM [L5R] to ANETQAEMEEELRYAPLSFRNPMM [L5Q], the protein stability index rises from 2.14 to 2.86.

Going from ANETGAEMEEELRYAPLSFRNPMM [L5G] to ANETEAEMEEELRYAPLSFRNPMM [L5E], the protein stability index rises from 2.58 to 3.32.

First: ANETHAEMEEELRYAPLSFRNPMM [L5H]
Second: ANETDAEMEEELRYAPLSFRNPMM [L5D]
The protein stability index of the first is lower: 3.14 for the first, 3.62 for the second.

Going from ANETVAEMEEELRYAPLSFRNPMM [L5V] to ANETNAEMEEELRYAPLSFRNPMM [L5N], the protein stability index rises from 2.78 to 3.05.

Compared with ANETSAEMEEELRYAPLSFRNPMM [L5S], ANETKAEMEEELRYAPLSFRNPMM [L5K] is lower in protein stability index: 2.96 for the first, 2.16 for the second.

First: ANETTAEMEEELRYAPLSFRNPMM [L5T]
Second: ANETAAEMEEELRYAPLSFRNPMM [L5A]
The protein stability index of the first is higher: 3.01 for the first, 2.7 for the second.

First: ANETCAEMEEELRYAPLSFRNPMM [L5C]
Second: ANETWAEMEEELRYAPLSFRNPMM [L5W]
The protein stability index of the first is higher: 2.69 for the first, 2.01 for the second.

Compared with ANETFAEMEEELRYAPLSFRNPMM [L5F], ANETYAEMEEELRYAPLSFRNPMM [L5Y] is lower in protein stability index: 2.96 for the first, 2.4 for the second.

Compared with ANETIAEMEEELRYAPLSFRNPMM [L5I], ANETLAEMTEELRYAPLSFRNPMM [E9T] is higher in protein stability index: 2.16 for the first, 2.94 for the second.

Going from ANETLAEMMEELRYAPLSFRNPMM [E9M] to ANETLAEMVEELRYAPLSFRNPMM [E9V], the protein stability index falls from 2.19 to 1.66.

First: ANETLAEMHEELRYAPLSFRNPMM [E9H]
Second: ANETLAEMAEELRYAPLSFRNPMM [E9A]
The protein stability index of the first is higher: 3.27 for the first, 2.44 for the second.

Compared with ANETLAEMFEELRYAPLSFRNPMM [E9F], ANETLAEMKEELRYAPLSFRNPMM [E9K] is lower in protein stability index: 2.71 for the first, 1.8 for the second.

First: ANETLAEMIEELRYAPLSFRNPMM [E9I]
Second: ANETLAEMNEELRYAPLSFRNPMM [E9N]
The protein stability index of the first is higher: 3.61 for the first, 2.87 for the second.

Going from ANETLAEMREELRYAPLSFRNPMM [E9R] to ANETLAEMYEELRYAPLSFRNPMM [E9Y], the protein stability index rises from 1.4 to 2.48.

Going from ANETLAEMDEELRYAPLSFRNPMM [E9D] to ANETLAEMSEELRYAPLSFRNPMM [E9S], the protein stability index falls from 2.85 to 2.78.

Going from ANETLAEMCEELRYAPLSFRNPMM [E9C] to ANETLAEMPEELRYAPLSFRNPMM [E9P], the protein stability index rises from 2.33 to 3.22.

First: ANETLAEMLEELRYAPLSFRNPMM [E9L]
Second: ANETLAEMGEELRYAPLSFRNPMM [E9G]
The protein stability index of the first is higher: 2.45 for the first, 2.19 for the second.

Going from ANETLAEMWEELRYAPLSFRNPMM [E9W] to ANETLAEMEEEGRYAPLSFRNPMM [L12G], the protein stability index rises from 1.3 to 2.62.

Compared with ANETLAEMEEEFRYAPLSFRNPMM [L12F], ANETLAEMEEECRYAPLSFRNPMM [L12C] is higher in protein stability index: 3.14 for the first, 4.37 for the second.

Going from ANETLAEMEEEARYAPLSFRNPMM [L12A] to ANETLAEMEEEHRYAPLSFRNPMM [L12H], the protein stability index rises from 3.14 to 3.79.

Going from ANETLAEMEEEERYAPLSFRNPMM [L12E] to ANETLAEMEEEDRYAPLSFRNPMM [L12D], the protein stability index rises from 3.65 to 4.49.
